Publication PMC10696041

B1: MBP-CUB1CUB2 domains of PCPE-2, WT [human] / bone morphogenetic protein-1 [human] (parent)
chain 1: QSPERPVFTCGGILTGESGFIGSEGFPGVYPPNSKCTWKITVPEGKVVVLNFRFIDLESDNLCRYDFVDVYNGHANGQRIGRFCGTFRPGALVSSGNKMMVQMISDANTAGNGFMAMFSAAEPNERGDQYCGGLLDRPSGSFKTPNWPDRDYPAGVTCVWHIVAPKNQLIELKFEKFDVERDNYCRYDYVAVFNGGEVNDARRIGKYCGDSPPAPIVSERNELLIQFLSDLSLTADGFIGHYIFRPK
chain 2: AATSRPERVWPDGVIPFVIGGNFTGSQRAVFRQAMRHWEKHTCVTFLERTDEDSYIVFTYRPCGCCSYVGRRGGGPQAISIGKNCDKFGIVVHELGHVVGFWHEHTRPDRDRHVSIVRENIQPGQEYNFLKMEPQEVESLGETYDFDSIMHYARNTFSRGIFLDTIVPKYEVNGVKPPIGQRTRLSKGDIAQARKLYKCPACGETLQDSTGNFSSPEYPNGYSAHMHCVWRISVTPGEKIILNFTSLDLYRSRLCWYDYVEVRDGFWRKAPLRGRFCGSKLPEPIVSTDSRLWVEFRSSSNWVGKGFFAVYEAICGGDVKKDYGHIQSPNYPDDYRPSKVCIWRIQVSEGFHVGLTFQSFEIERHDSCAYDYLEVRDGHSESSTLIGRYCGYEKPDDIKSTSSRLWLKFVSDGSINKAGFAVNFFKEVDECSRPNRGGCEQRCLNTLGSYKCSCDPGYELAPDKRRCEAACGGFLTKLNGSITSPGWPKEYPPNKNCIWQLVAPTQYRISLQFDFFETEGNDVCKYDFVEVRSGLTADSKLHGKFCGSEKPEVITSQYNNMRVEFKSDNTVSKKGFKAHFFSEKRPALQPPRGRPHQLKFRVQKRNRTPQ

Variants of: B1
Test: SPR
Conditions: with bone morphogenetic protein-1 [human]; 50 nM MBP-CUB1CUB2; immobilized BMP-1 (1302 RU); parent: 17; read off a plot

| Variant | response |
| --- | --- |
| chain 1 K46A E197A R220A | 7.2 RU |
| chain 1 F87A | 16 RU |
| chain 1 R150A | 18 RU |

Same assay, conditions: with bone morphogenetic protein-1 [human]; 50 nM MBP-CUB1CUB2; immobilized BMP-1 (1302 and 1492 RU); parent: 100; read off a plot

| Variant | percent of parent (% binding / WT) |
| --- | --- |
| chain 1 K46A E197A R220A | 40 |
